Measurements taken from US12630600B2 (MEDIMMUNE LIMITED, priority 2022, dated 2026).
Starred links: 1 amine or outer side, 2 acyl side, 3 side chain; linkers in the order of their positions; H or OH if unused. Non-standard residues stand in square brackets, D forms with d. Groups on a side chain read outwards from the residue. No end group written: not given here. *: point of attachment. C20 diacid = O=C(O)CCCCCCCCCCCCCCCCCCC(=O)*; C18 diacid = O=C(O)CCCCCCCCCCCCCCCCC(=O)*; γGlu = O=C(O)[C@H](CCC(=O)[*:2])N[*:1]; αMeF = C[C@](N)(Cc1ccccc1)C(=O)O; AEEA = NCCOCCOCC(=O)O; Aib = CC(C)(N)C(=O)O

Assays:
human glucagon receptor = human glucagon receptor (human, UniProt P47871); experiment: cell-based or functional assay
human GLP-1 receptor = human GLP-1 receptor (human, UniProt P43220); experiment: cell-based or functional assay

Row | Binder | hGluc-R EC50 (pM) (human glucagon receptor) | hGLP-1R EC50 (pM) (human GLP-1 receptor)
1 | H[Aib]QGTFTSDVSK[αMeF]LDSERAK([AEEA-AEEA-γGlu-C18 diacid])DFVQWLEA[Aib]G-OH (N-terminus assumed; SMILES CC(C)C[C@H](NC(=O)[C@H](Cc1c[nH]c2ccccc12)NC(=O)[C@H](CCC(N)=O)NC(=O)[C@@H](NC(=O)[C@H](Cc1ccccc1)NC(=O)[C@H](CC(=O)O)NC(=O)[C@H](CCCCNC(=O)COCCOCCNC(=O)COCCOCCNC(=O)CC[C@H](NC(=O)CCCCCCCCCCCCCCCCC(=O)O)C(=O)O)NC(=O)[C@H](C)NC(=O)[C@H](CCCNC(=N)N)NC(=O)[C@H](CCC(=O)O)NC(=O)[C@H](CO)NC(=O)[C@H](CC(=O)O)NC(=O)[C@H](CC(C)C)NC(=O)[C@](C)(Cc1ccccc1)NC(=O)[C@H](CCCCN)NC(=O)[C@H](CO)NC(=O)[C@@H](NC(=O)[C@H](CC(=O)O)NC(=O)[C@H](CO)NC(=O)[C@@H](NC(=O)[C@H](Cc1ccccc1)NC(=O)[C@@H](NC(=O)CNC(=O)[C@H](CCC(N)=O)NC(=O)C(C)(C)NC(=O)[C@@H](N)Cc1c[nH]cn1)[C@@H](C)O)[C@@H](C)O)C(C)C)C(C)C)C(=O)N[C@@H](CCC(=O)O)C(=O)N[C@@H](C)C(=O)NC(C)(C)C(=O)NCC(=O)O) [Peptide 525] | 2450 | 177
2 | H[Aib]QGTFTSDVSK[αMeF]LDSERAK([AEEA-AEEA-γGlu-C18 diacid])DFVAWLEAGG-OH (N-terminus assumed; SMILES CC(C)C[C@H](NC(=O)[C@H](Cc1c[nH]c2ccccc12)NC(=O)[C@H](C)NC(=O)[C@@H](NC(=O)[C@H](Cc1ccccc1)NC(=O)[C@H](CC(=O)O)NC(=O)[C@H](CCCCNC(=O)COCCOCCNC(=O)COCCOCCNC(=O)CC[C@H](NC(=O)CCCCCCCCCCCCCCCCC(=O)O)C(=O)O)NC(=O)[C@H](C)NC(=O)[C@H](CCCNC(=N)N)NC(=O)[C@H](CCC(=O)O)NC(=O)[C@H](CO)NC(=O)[C@H](CC(=O)O)NC(=O)[C@H](CC(C)C)NC(=O)[C@](C)(Cc1ccccc1)NC(=O)[C@H](CCCCN)NC(=O)[C@H](CO)NC(=O)[C@@H](NC(=O)[C@H](CC(=O)O)NC(=O)[C@H](CO)NC(=O)[C@@H](NC(=O)[C@H](Cc1ccccc1)NC(=O)[C@@H](NC(=O)CNC(=O)[C@H](CCC(N)=O)NC(=O)C(C)(C)NC(=O)[C@@H](N)Cc1c[nH]cn1)[C@@H](C)O)[C@@H](C)O)C(C)C)C(C)C)C(=O)N[C@@H](CCC(=O)O)C(=O)N[C@@H](C)C(=O)NCC(=O)NCC(=O)O) [Peptide 522] | 6360 | 508
3 | H[Aib]QGTFTSDVSK[αMeF]LDSERAK([AEEA-AEEA-γGlu-C20 diacid])DFVAWLEAGG-OH (N-terminus assumed; SMILES CC(C)C[C@H](NC(=O)[C@H](Cc1c[nH]c2ccccc12)NC(=O)[C@H](C)NC(=O)[C@@H](NC(=O)[C@H](Cc1ccccc1)NC(=O)[C@H](CC(=O)O)NC(=O)[C@H](CCCCNC(=O)COCCOCCNC(=O)COCCOCCNC(=O)CC[C@H](NC(=O)CCCCCCCCCCCCCCCCCCC(=O)O)C(=O)O)NC(=O)[C@H](C)NC(=O)[C@H](CCCNC(=N)N)NC(=O)[C@H](CCC(=O)O)NC(=O)[C@H](CO)NC(=O)[C@H](CC(=O)O)NC(=O)[C@H](CC(C)C)NC(=O)[C@](C)(Cc1ccccc1)NC(=O)[C@H](CCCCN)NC(=O)[C@H](CO)NC(=O)[C@@H](NC(=O)[C@H](CC(=O)O)NC(=O)[C@H](CO)NC(=O)[C@@H](NC(=O)[C@H](Cc1ccccc1)NC(=O)[C@@H](NC(=O)CNC(=O)[C@H](CCC(N)=O)NC(=O)C(C)(C)NC(=O)[C@@H](N)Cc1c[nH]cn1)[C@@H](C)O)[C@@H](C)O)C(C)C)C(C)C)C(=O)N[C@@H](CCC(=O)O)C(=O)N[C@@H](C)C(=O)NCC(=O)NCC(=O)O) [Peptide 523] | > 24700 | 615
4 | H[Aib]QGTFTSDYSK[αMeF]LDSRRAK([γGlu-C18 diacid])DFVQWLL[Aib]E-OH (N-terminus assumed; SMILES CC(C)C[C@H](NC(=O)[C@H](Cc1c[nH]c2ccccc12)NC(=O)[C@H](CCC(N)=O)NC(=O)[C@@H](NC(=O)[C@H](Cc1ccccc1)NC(=O)[C@H](CC(=O)O)NC(=O)[C@H](CCCCNC(=O)CC[C@H](NC(=O)CCCCCCCCCCCCCCCCC(=O)O)C(=O)O)NC(=O)[C@H](C)NC(=O)[C@H](CCCNC(=N)N)NC(=O)[C@H](CCCNC(=N)N)NC(=O)[C@H](CO)NC(=O)[C@H](CC(=O)O)NC(=O)[C@H](CC(C)C)NC(=O)[C@](C)(Cc1ccccc1)NC(=O)[C@H](CCCCN)NC(=O)[C@H](CO)NC(=O)[C@H](Cc1ccc(O)cc1)NC(=O)[C@H](CC(=O)O)NC(=O)[C@H](CO)NC(=O)[C@@H](NC(=O)[C@H](Cc1ccccc1)NC(=O)[C@@H](NC(=O)CNC(=O)[C@H](CCC(N)=O)NC(=O)C(C)(C)NC(=O)[C@@H](N)Cc1c[nH]cn1)[C@@H](C)O)[C@@H](C)O)C(C)C)C(=O)N[C@@H](CC(C)C)C(=O)NC(C)(C)C(=O)N[C@@H](CCC(=O)O)C(=O)O) [Peptide 340] | 94.7 | 312
5 | H[Aib]QGTFTSDVSE[αMeF]LDSERAK([AEEA-AEEA-γGlu-C18 diacid])DFVRWLEAGG-OH (N-terminus assumed; SMILES CC(C)C[C@H](NC(=O)[C@H](Cc1c[nH]c2ccccc12)NC(=O)[C@H](CCCNC(=N)N)NC(=O)[C@@H](NC(=O)[C@H](Cc1ccccc1)NC(=O)[C@H](CC(=O)O)NC(=O)[C@H](CCCCNC(=O)COCCOCCNC(=O)COCCOCCNC(=O)CC[C@H](NC(=O)CCCCCCCCCCCCCCCCC(=O)O)C(=O)O)NC(=O)[C@H](C)NC(=O)[C@H](CCCNC(=N)N)NC(=O)[C@H](CCC(=O)O)NC(=O)[C@H](CO)NC(=O)[C@H](CC(=O)O)NC(=O)[C@H](CC(C)C)NC(=O)[C@](C)(Cc1ccccc1)NC(=O)[C@H](CCC(=O)O)NC(=O)[C@H](CO)NC(=O)[C@@H](NC(=O)[C@H](CC(=O)O)NC(=O)[C@H](CO)NC(=O)[C@@H](NC(=O)[C@H](Cc1ccccc1)NC(=O)[C@@H](NC(=O)CNC(=O)[C@H](CCC(N)=O)NC(=O)C(C)(C)NC(=O)[C@@H](N)Cc1c[nH]cn1)[C@@H](C)O)[C@@H](C)O)C(C)C)C(C)C)C(=O)N[C@@H](CCC(=O)O)C(=O)N[C@@H](C)C(=O)NCC(=O)NCC(=O)O) [Peptide 524] | > 24400 | 366
6 | H[Aib]QGTFTSDYSK[αMeF]LDSRRAK([γGlu-C18 diacid])DFVQWLLE[Aib]T-OH (N-terminus assumed; SMILES CC(C)C[C@H](NC(=O)[C@H](Cc1c[nH]c2ccccc12)NC(=O)[C@H](CCC(N)=O)NC(=O)[C@@H](NC(=O)[C@H](Cc1ccccc1)NC(=O)[C@H](CC(=O)O)NC(=O)[C@H](CCCCNC(=O)CC[C@H](NC(=O)CCCCCCCCCCCCCCCCC(=O)O)C(=O)O)NC(=O)[C@H](C)NC(=O)[C@H](CCCNC(=N)N)NC(=O)[C@H](CCCNC(=N)N)NC(=O)[C@H](CO)NC(=O)[C@H](CC(=O)O)NC(=O)[C@H](CC(C)C)NC(=O)[C@](C)(Cc1ccccc1)NC(=O)[C@H](CCCCN)NC(=O)[C@H](CO)NC(=O)[C@H](Cc1ccc(O)cc1)NC(=O)[C@H](CC(=O)O)NC(=O)[C@H](CO)NC(=O)[C@@H](NC(=O)[C@H](Cc1ccccc1)NC(=O)[C@@H](NC(=O)CNC(=O)[C@H](CCC(N)=O)NC(=O)C(C)(C)NC(=O)[C@@H](N)Cc1c[nH]cn1)[C@@H](C)O)[C@@H](C)O)C(C)C)C(=O)N[C@@H](CC(C)C)C(=O)N[C@@H](CCC(=O)O)C(=O)NC(C)(C)C(=O)N[C@H](C(=O)O)[C@@H](C)O) [Peptide 342] | 4830 | 220
7 | H[Aib]QGTFTSDVSK[αMeF]LDSERAK([AEEA-AEEA-γGlu-C18 diacid])DFVAWLEA[Aib]G-OH (N-terminus assumed; SMILES CC(C)C[C@H](NC(=O)[C@H](Cc1c[nH]c2ccccc12)NC(=O)[C@H](C)NC(=O)[C@@H](NC(=O)[C@H](Cc1ccccc1)NC(=O)[C@H](CC(=O)O)NC(=O)[C@H](CCCCNC(=O)COCCOCCNC(=O)COCCOCCNC(=O)CC[C@H](NC(=O)CCCCCCCCCCCCCCCCC(=O)O)C(=O)O)NC(=O)[C@H](C)NC(=O)[C@H](CCCNC(=N)N)NC(=O)[C@H](CCC(=O)O)NC(=O)[C@H](CO)NC(=O)[C@H](CC(=O)O)NC(=O)[C@H](CC(C)C)NC(=O)[C@](C)(Cc1ccccc1)NC(=O)[C@H](CCCCN)NC(=O)[C@H](CO)NC(=O)[C@@H](NC(=O)[C@H](CC(=O)O)NC(=O)[C@H](CO)NC(=O)[C@@H](NC(=O)[C@H](Cc1ccccc1)NC(=O)[C@@H](NC(=O)CNC(=O)[C@H](CCC(N)=O)NC(=O)C(C)(C)NC(=O)[C@@H](N)Cc1c[nH]cn1)[C@@H](C)O)[C@@H](C)O)C(C)C)C(C)C)C(=O)N[C@@H](CCC(=O)O)C(=O)N[C@@H](C)C(=O)NC(C)(C)C(=O)NCC(=O)O) [Peptide 526] | 690 | 194
